Test results published in the domain aggregation screens of Martell et al. (2025).

Experiment: soluble fraction after stress (log2 fold change); higher = more stays soluble; pooled small domains, quantitative proteomics
Settings: stress: 75 degC
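Also: 20 min heating vs room temperature control held 20 min.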

Sequence	soluble fraction (log2)
HMGGVTVQNRETHVNSTVNVRSEQTTESERVALAYQGDAITQIESYENGWSKVEYKGLSGYVMTEYL	0.275
HMGGYLIGDVAQMVGLSRDALRFYEKKGIIRADKKENGYRYYSEDDIYRLMYILYHRKMNTSLEEIGGLMS	-0.722
HMGHKKLTIELQDEIIVLPKELEKYNLTVSDDKTSLIYTYKSRGEKTGITDLLRDIKDAGLRLKDLITEQ	0.284
HMGHTVHAVPEAADRQRLDVFVGNLHPTISRAYIQKLSKEDQILVNGKPEKAGFKLRTGHSVSVPDMSE	0.00554
HMGIAEAKRVIVRTLHDVLGPEADFLTEKIDVAQTAAELRVHAEKYRDMLVDMGKPKKSAAFWEAFEAALP	-0.588
HMGIAKLLTEQEYKIALLAAERRTNAMIAEEMNLTENTVKTHLKHIFDKVGIAGNAKNKRHLLADMMNSER	-0.552
HMGIDISAFSETALQVLRLQAAGYTAKEISEKLHITPRTVKYHASQNYRKLDAKNLVDAVQIAQALHI	-1.79
HMGIEQVELASRVRDAVDSLPHHLREIILLSYFQKMSYNQIAETLQVPLGTVKSRLHAAVASFAQAWTQSS	-0.712
HMGIFAQTTKWRDIYTVKKKDTIFGIANKYGLSLPELMEANPEMKQEGYMLQKGTTLFIPFASD	-1.32
HMGIGSTLTDGVRVYASDDEIVVNAPAESDVRIFNAGGAQLYAGRVADVRVAVAKGLYVVTVDGRSTKITV	-1.11
HMGIILDWELFEQFADKLKRKKVDFVIEPYLRFEGRRGEQSTLFIKDPSGNYLEFKAFKNIDMLFEK	-1.78
HMGIPIEAYHESLHRHYIDLWELLDTGKETLIDAEGNEVDKIHLLNAIRFNVNGMLHELLKE	-1.91
HMGIQYVASGHYARMETDAQGVSRLFPPESGAPDESDRLAALSPEVLTRLILPLGDFAPEDVEEMAVD	-0.0745
HMGIRAFDPEAFDERLKEFFSMIAPYKKLDTRSLQPHFPHHAKEVAERIRQLAEAGKIKVDGFYISEL	-0.587
HMGIRDIHITVNGESLKLSKKQNYIFVDIFDFYPFDLSILGGSKLITTINGEQAEFTSPLKDGDVVELYWK	-2.25
HMGISNEETFLLEKMSSGRRYSRKELDNLMGFEKTKTIRLLGSLINKGLVVAEGVNRARRYIR	-1.27
HMGISQAQAMQALRKLIEEEDKHTPLSDQTLMERLKAAGIPLARRTIAKYRESLGIPSAAQRK	-0.266
HMGISVEVPDLKNMSVAEAGSLLKNSGLSYAVVDSDYVKTISPGKILDQNPGRGLRVKKGRIVYLTINSL	-1.69
HMGITDHIYQDLKKRLENGNYPAGTRFPSESTLADEFSVNKMTMNKIVSMLAEQGYLIRGNRGAGTRVAEN	-0.399
HMGITPSIEMILEYFAFKESSETEANKFFNYYSSIGWLVGGKTKMKDWKASARNWIMNQNKFQ	-4.63
HMGIVAPGTLKHLHAVGNSYYPDWETKRHELVTAVTKGRTSSSKELYEAEANRLITRIEELLMTAAQSV	-0.113
HMGIVTMPGQGSKMRFDFDATGDLPSSTSWRGMFAYANNTKRAYVSTGTTMGGYNGWRQLIAMDEYGNYQT	0.0821
HMGKEIEAPDFKNMTLKEAKIAAKEYKIRIKKGDEVVSEEVEKGRIVSQDPDAGTTIKTGSTVTVNISKGL	0.131
HMGKELSTVVVPDLTGLSVLEARNVLTKVGLQLTPSGAGIAFKQIPTPGTRLTLGATVTVYFVATGY	-1.47
HMGKELTVPDVVGQNYVSAQEKLIAGGFQVEVADSVYDSRYGRGVVVDQNPHKDTRVKPGRLIYVTVNA	-0.157
HMGKEWPTPDNVEEWKKLVKKARLWPIQADQAQSEETRERNRKKWELFVAYAKRFGYRAGIGETGKPFVNN	-1.15
HMGKINEIVANNIAILRKKNRLSLEELGKLSGVSKSMLALIEKGDGNPTLGILWKIANGLGVPFDELTRRP	-1.35
HMGKLGENIKRIREGMGLSQRQFGELIGKSDSQIWSYENDRTDILASTLYKIAAVANVDFNNLMAGIIP	-1.07
HMGKLYRDRYAPLEPDGARAGDRVFIISLEKEGTLERIDLPRKTATVLLGSSIRSTFPLDDLYQPRG	-0.25
HMGKMTSTLGVHIAAYRKEHGETVAQFASRSGVSVSSIRRIESGISDPSADLVWKISRHMGMTMDDLFKKM	-3.74
